Data: the RNAGym collection of RNA variant scans (doi:10.1073/pnas.2313332121)
This sample holds only a part of the variants without activity.

B1: TPR 5TU (parent)
chain: GGAUCUUCUCGAUCUAACAAAAAAGACAAAUCUGCCACAAAGCUUGAGAGCAUCUUCGGAUGCAGAGGCGGCAGCCUUCGGUGGCGCGAUAGCGCCAACGUUCUCAACUAUGACACGCAAAACGCGUGCUCCGUUGAAUGGAGUUUAUCAUG

Variants of: B1
Assay: polymerase ribozyme fitness, log enrichment relative to wild type (log ratio); higher = more active; in vitro selection for triplet polymerase activity
In short: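 In triplicate, a single round of in vitro selection was run on each mutant library, PCR-built and transcribed, covering one subunit of a heterodimeric triplet polymerase ribozyme. Frozen incubation at −7 °C followed annealing with a biotinylated primer, partner subunit and triplets, and extended constructs were then gel-excised, streptavidin-captured and taken through RT-PCR. Fitness is the logarithm of genotype enrichment over wild-type enrichment, from inverse-variance-weighted replicate averages of Illumina-sequenced inputs and outputs. […] only genotypes with ≥10 input reads and ≥1 read per output were kept.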

Variant	polymerase ribozyme fitness (log ratio)
C5A C57G C75U G86A A91C	-4.01
A3U C93U C118U	-1.3
A39G C103G U144A	≤ -4.2
U53A G84A	-2.38
A3C U7C A47C U55A G59A A73U U82G U146C	≤ -4.2
A21C U61A A89U U90G G100U G136A A138C U144G	≤ -4.2
C114G G124C	-4.13
A21U A39C G58A G94C C125G U148G	≤ -4.2
U4G A26U G50U C87A G141A A150U	≤ -4.2
A97G U101G	0.358
A41U G140A	-3.78
A47C C105A	-1.02
C54U G92U	-0.757
C54U C96U	-0.41
U53A C95U A138C	≤ -4.2
A17U A19U A22U U61A G83A G84A G100U	≤ -4.2
A91C A115G U146A	≤ -4.2
A3U C14G A28C A91U A97C A122C	≤ -4.2
G25A A28U A41U A66U G83U U111G C118U	≤ -4.2
C87A A107G A115U U135C A142C	≤ -4.2
U53G G141C	-2.53
C85U C99G	-1.07
G88U C95G C125U	≤ -4.2
U6C G48C G65A U78A G80A G88C A106G U127C G152U	≤ -4.2

Variant	polymerase ribozyme fitness (log ratio)
G34C C51G C57U G83C	≤ -4.2
C69G A121U	-2.04
A60C G94C A97G A98G U134C	-3.8
U55A C95U C105A C108G	≤ -4.2
A37G A60U G81A A97C A137G	-4.19
A21C C72G A73U C93U C99G G126U	≤ -4.2
C8A A12U U15G G62U G124A	≤ -4.2
A41U G71A G83C G84U U145C A147U	≤ -4.2
C18G A21U A29C A37U C57U C95U U127G U148G	-3.75
U15G A24U G25C C38G C54G C76G G81C C93A C132U	≤ -4.2
G50U A60U C76A G80U U101G A107U	≤ -4.2
G25U C43A G58C A60C A91G	≤ -4.2
A21G G25C G34A A49G C72U G92C G112U	≤ -4.2
U13G G83C U145C	-3.39
A3U C27G C38U G48U G58U C79G G92A C105U G117U G143U	≤ -4.2
C93G C132G	≤ -4.2
C43G A49C G68C C72U A97U	≤ -4.2
A29U G58U U61A U82A G86A A119G	≤ -4.2
A17C C85U	0.349
A97G A98U	-0.253
U15A C38U C54U C95G G141A	-1.16
U15C A20U C54U G86U	-1.77
C32G A39G G58U G143C	-4.1
C8U A21C A28U U53A U77G G88U U145G A150C	≤ -4.2

Variant	polymerase ribozyme fitness (log ratio)
A47G C54A	-1.65
A20C A21G G48A C54A A113C A147C	≤ -4.2
C14U C57A	-0.738
U55A C79U C85U	-3.3
A22U C38U C51U U53A C54A C85G	≤ -4.2
G59A C85A A115G C123U	-2.65
G84A C95A U104C	-0.367
A19G A41C G59A G62A A73U C118G A150U	≤ -4.2
A30C A52C G83U G84C U135A G141C	≤ -4.2
A24U A28G A29U C93G C114U	≤ -4.2
A3U C43A U45A A47U G59C C125U U130C A137G	≤ -4.2
C57U G83A C99A	-2.32
U6C U31C A52U G58A C95G U145A	-2.9
U44G C57G A91U A107G C125U U130C U135G	≤ -4.2
U61A G117A	-0.98
A19U A30U U55G G59A G86U A150U	≤ -4.2
A40C C96U A150G	-1.3
U56G G71C C123G	-3.58
C14U A20C A39G A52G U56A C96A A121U	-4
U61G G94A C108G	≤ -4.2
C54U A66U C85U	≤ -4.2
C54G C93A	-4.19
G71C C129A	≤ -4.2
C57G G81U C85G C96U U134A	-4.03

Variant	polymerase ribozyme fitness (log ratio)
A16U A37C C63U C95U A119U A122U	-3.13
C54A U55A U77G A121C A137U	≤ -4.2
A20U G42U U90G C96A G117A A137U	≤ -4.2
C18U C87U C99U A119G C125G U135G	≤ -4.2
C5G A16G A19G A24U A37G G50C G84U A120C G133U	≤ -4.2
G80A A89U C95U A120G	-1.11
G42A G58C C79A C118U A142U	≤ -4.2
U33C C36U C54A C72U G84U C85A U148G	≤ -4.2
C76U C85G	-0.632
C93U C99A G128C	≤ -4.2
G42C A47G G88C	≤ -4.2
U61A U78G C95U A107C U148G A150U	≤ -4.2
C35U C63A	-0.573
C27A A29G U33G C35A A60G C93G A97G A120U G133U U134G	≤ -4.2
A39U A49C U55A C87U C116G	≤ -4.2
A20G A37U U111G	≤ -4.2
A20U G58C C85U A98U C129U U134C	-1.85
G124U U134G	-2.98
G25U C76G G92A A119U U145A C149A U151G	≤ -4.2
A37U A60G A91G G143C	≤ -4.2
A73G C85U U102G G124A	≤ -4.2
G80A G84A	-0.264
C38U U45G U55A A60U G71A	≤ -4.2
G124U G140A	-4

Variant	polymerase ribozyme fitness (log ratio)
U53G U55A	-1.92
C14G A22G G25A A28C G50C G84U U104G	≤ -4.2
C85G C96U A113U	-3.8
U13G G86U	-3.56
A22G G58A C75A G86U C99A C103U G141C	≤ -4.2
U4C G86A	-0.918
G83U G126A U148A	≤ -4.2
C76U C93G G124A C132A	≤ -4.2
C85A U139G	-1.11
A28C A30U C35G C87A C105U	-3.84
C38A U109A C114U C116G	≤ -4.2
A21U G141A	1.36
A23C A40U C95U U134A U151A	≤ -4.2
C35U A142G	-1.79
U13G U33G U56A A60U G143U	≤ -4.2
U53C C72U C132U	-3.52
A20G C57U C99A C108U	≤ -4.2
A17C C131G	-3.09
G83C C132G	≤ -4.2
U13G U56A C57U C87A G88C A89U A121U C125A U148A	≤ -4.2
U7G	-2.22
C87A A97G A142C	≤ -4.2
C72G A91G C99G U144A	≤ -4.2
A29U G141C	-3.49

Variant	polymerase ribozyme fitness (log ratio)
A49C A115U	≤ -4.2
G136U G143C	-3.26
A3G A12C A37C G48A A49C U78G G86A C87G C99U A142C U146G	≤ -4.2
A12C G92C	-0.73
A29C A37C G74A A97G U130A	≤ -4.2
C14G G88U U102A	≤ -4.2
C57U C76G A115C A150G	≤ -4.2
A41U G84C C103G	≤ -4.2
U78G G86U	≤ -4.2
U61A C99G	-3.23
U7G C14G A52C U55C G80A G86U C87A	≤ -4.2
A29U U31A U56G A66G C96U C105A A138U	≤ -4.2
U7C C38U C87A A122U	≤ -4.2
G42C U44A U90G G140U A147U	≤ -4.2
C63U G70C C87G A89G C96A G126C	≤ -4.2
G83A C95A A113U	-3.12
A26G G58A C105G G117C U127G	≤ -4.2
A3C C8G U9G G59A C87A G92C G117C G133U	≤ -4.2
A52C G88A C95U C99U A110U	-4.07
C18G C57G G80U C87A U127C G128C	≤ -4.2
C5A A17U U56A U127A	-4.16
A16U U53A A66G C87A	≤ -4.2
C76G C96A G140A	≤ -4.2
A22U A29G C35G U44G C57U C114A	≤ -4.2

Variant	polymerase ribozyme fitness (log ratio)
C54G G84A	-1.74
A23U G83U C93A G126U C129U	≤ -4.2
U135C U151A	≤ -4.2
U9G A12U A19U A21U G58A C76U G84A A106U	≤ -4.2
A29C G67C A89U G94U	≤ -4.2
C5G G136A	0.0107
U77G C79G G83C	≤ -4.2
U45A C76U C125G	-3.81
C14U G92C G136A	-2.51
A89C G92U	-1.92
C18G A26U C35U U78A C99G U135C A147C	≤ -4.2
A20U A41U C63A A106G U145A	-2.83
G11A A49G A60U	-2.63
A20C C57U G59C G62C G124A	-0.9
C10A C63U G67A U77C G92A U127C U135G	≤ -4.2
C93G A119U	-3.51
U78A C79U U82A G94U C96G G126A G141U	≤ -4.2
C14G A20C C38U A147U	-2.09
C5U A16U C87A A106C	≤ -4.2
A107C C116G	-3.74
G84C G126C	-1.54
A52G G62A C76U U145A	-2.04
U4C A21G G42A G48C G50C A64U G84C U102G U127A	≤ -4.2
